The target of assay [1] is Knl1c:Mis12c^Mtw1c complex K^HB-RWDM^2E (full-length Dsn1 with S240E and S250E phosphomimetic mutations), P53148;Q04431;P40568;P39731;P47149;Q12143. The assay is described as follows: ITC. The settings on record: Syringe: CENP-U^Ame1_1-33-Mut (0.32 mM); Cell: K^HB-RWDM^2E (0.016 mM); parent: 1.35 ± 0.08.
Assay [2] addresses KlMis12c^Mtw1c with phosphomimetic mutations of Dsn1^AI. The conditions noted are these: fluorescence polarization; K. lactis complex with phosphomimetic mutations (Asp mutants of S213/S223); ref Dimitrova et al., 2016; cited from earlier work. The source says:
We further investigated the effect of Dsn1^AI on the interaction between K^HB-RWDM (which has wild-type unphosphorylated Dsn1^AI) and a peptide modeled on the N-terminal 38 residues of CENP-C^Mif2 (CENP-C^Mif2_1–38). […] Also similar to Dimitrova et al. (2016), using ITC we found no binding of CENP-UAme1_1-33 to the unphosphorylated KM. […] We cannot accoun ... || (+ 2 further places)

The test system of assay [3] is KlMis12c^Mtw1c containing an intact Dsn1^AI. The conditions noted are these: lower concentrations (50 nM) for CENP-U^Ame1, unphosphorylated complex, ref Dimitrova et al., 2016; cited from earlier work.
Assay [4] concerns T1, K^HB-RWDM^Dsn1Δ257 (Knl1c:Mis12c^Mtw1c complex, Knl1^Spc105 residues 1–444 and Dsn1 residues 1–257 deleted).
T1 construct: made in house; host or cells: High-5 insect cells (baculovirus)
T1 sequence (Q04431 whole entry, stated change not applied, one chain of several, further chain, the tested form may be a part): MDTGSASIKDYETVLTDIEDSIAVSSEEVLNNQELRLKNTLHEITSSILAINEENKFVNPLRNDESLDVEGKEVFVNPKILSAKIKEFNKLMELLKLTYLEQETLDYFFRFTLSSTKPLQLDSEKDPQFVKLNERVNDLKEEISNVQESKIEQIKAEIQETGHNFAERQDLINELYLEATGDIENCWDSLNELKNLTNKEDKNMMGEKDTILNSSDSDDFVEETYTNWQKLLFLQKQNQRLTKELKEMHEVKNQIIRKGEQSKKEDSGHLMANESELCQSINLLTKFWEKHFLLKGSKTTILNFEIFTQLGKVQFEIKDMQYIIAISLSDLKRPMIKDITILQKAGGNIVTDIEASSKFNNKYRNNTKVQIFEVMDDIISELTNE
T1 sequence (P53148 445-917, stated change not applied, one chain of several, further chain): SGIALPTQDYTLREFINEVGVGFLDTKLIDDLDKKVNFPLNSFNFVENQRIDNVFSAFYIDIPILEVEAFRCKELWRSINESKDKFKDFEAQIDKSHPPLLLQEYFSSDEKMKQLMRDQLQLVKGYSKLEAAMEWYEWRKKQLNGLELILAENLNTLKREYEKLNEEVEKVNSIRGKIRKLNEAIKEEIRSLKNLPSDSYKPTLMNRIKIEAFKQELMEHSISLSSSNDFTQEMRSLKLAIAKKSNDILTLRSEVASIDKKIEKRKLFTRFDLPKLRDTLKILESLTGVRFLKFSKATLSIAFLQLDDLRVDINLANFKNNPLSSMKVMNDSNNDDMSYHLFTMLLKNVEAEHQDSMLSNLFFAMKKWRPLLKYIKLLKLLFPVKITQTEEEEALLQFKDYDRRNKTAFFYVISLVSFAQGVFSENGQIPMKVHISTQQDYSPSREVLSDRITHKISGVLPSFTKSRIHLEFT
Kind of assay: ITC, Dsn1 peptide titrated into K^HB-RWDM^Dsn1Δ257. The format is binding, S. cerevisiae. As for the experimental part: Dsn1^228–254 and Dsn1^228–254,S240E,S250E peptides were synthesized by Alta BioScience with N-terminal acetylation and C-terminal GSAW extension and amidation. The final sequence of Dsn1^228–254 was […], and Dsn1^228–254,S240E,S250E was […]. All protein complexes and peptides used in a given experiment were dialyzed for a minimum of 16 h and/or buffer-exchanged by size-exclusion chromatography into the same batch of ITC buffer (25 mM HEPES, pH 7.5, 100 mM NaCl, 1 mM TCEP). All experiments were performed using an Auto-iTC200 instrument (Malvern Instruments) at 25°C. In each experiment, 360 μl of protein complex was pipetted into the calorimeter cell. The protein complex loaded into the calorimeter cell contained Knl1c:Mis12c^Mtw1c with Knl1^Spc105_HB-RWD and Dsn1^Δ1–257 and either wild-type Mis12^Mtw1 (K^HB-RWDM ^Dsn1Δ257) or Mis12^Mtw1_E69A,E73A,E77A mutant (K^HB-RWDM ^Dsn1Δ257_Mis12-3A). Wild-type constructs of all other Knl1c and Mis12c^Mtw1c subunits were included. Titration of either the Dsn1^228–254 or Dsn1^228-254,S240E,S250E peptide into the cell was then performed by an initial injection of 0.5 μl, followed by 19 further injections of 2.0 μl each. […] Titrations were performed in duplicate or triplicate, and reported KD and n values were calculated as an average from all replicate results.
Background: In ITC the heat of successive injections is recorded.

Assay [5] has as its target T2, Knl1c:Mis12c^Mtw1c complex K^HB-RWDM^2E (full-length Dsn1 with S240E and S250E phosphomimetic mutations) (S. cerevisiae, UniProt P53148 445-917; Q04431 1-385; P40568 1-576; P39731 1-289; P47149 1-201; Q12143 …, S240E | S250E).
T2 construct: Knl1^Spc105_HB-RWD: Knl1^Spc105, S. cerevisiae S288c, residues 445-917; ZWINT^Kre28, S. cerevisiae S288c; no truncation stated; Dsn1^S240E,S250E: full-length Dsn1, S. cerevisiae S288c, with phosphomimetic mutations; Mis12^Mtw1, S. cerevisiae S288c; Nnf1, S. cerevisiae S288c; Nsl1, S. cerevisiae S288c; also called KM^2E; K^HB-RWDM^S240E,S250E; source: High-5 insect cells (baculovirus), purified …
The assay is described as follows: ITC; peptide titrated into the complex in the cell; 20°C; 25 mM HEPES pH 7.5, 100 mM NaCl, 0.5 mM TCEP. The settings on record: both partners purified.

For assay [6], the target named is T3, S. cerevisiae Ndc80 complex (Ndc80, Nuf2, Spc24, Spc25) (S. cerevisiae, UniProt P40460 1-691; P33895 1-451; Q04477 1-213; P40014 1-221).
T3 construct: Ndc80, S. cerevisiae S288c; Nuf2, S. cerevisiae S288c; Spc24, S. cerevisiae S288c; Spc25, S. cerevisiae S288c; The Twin-Strep tag on Nuf2 is TEV cleavable; no cleavage is described; source: High-5 insect cells (two baculoviruses), purified (Strep-Tactin, Resource Q, SEC); copies: + + +
T3 sequence (P40460 whole entry, chain 1 of 4): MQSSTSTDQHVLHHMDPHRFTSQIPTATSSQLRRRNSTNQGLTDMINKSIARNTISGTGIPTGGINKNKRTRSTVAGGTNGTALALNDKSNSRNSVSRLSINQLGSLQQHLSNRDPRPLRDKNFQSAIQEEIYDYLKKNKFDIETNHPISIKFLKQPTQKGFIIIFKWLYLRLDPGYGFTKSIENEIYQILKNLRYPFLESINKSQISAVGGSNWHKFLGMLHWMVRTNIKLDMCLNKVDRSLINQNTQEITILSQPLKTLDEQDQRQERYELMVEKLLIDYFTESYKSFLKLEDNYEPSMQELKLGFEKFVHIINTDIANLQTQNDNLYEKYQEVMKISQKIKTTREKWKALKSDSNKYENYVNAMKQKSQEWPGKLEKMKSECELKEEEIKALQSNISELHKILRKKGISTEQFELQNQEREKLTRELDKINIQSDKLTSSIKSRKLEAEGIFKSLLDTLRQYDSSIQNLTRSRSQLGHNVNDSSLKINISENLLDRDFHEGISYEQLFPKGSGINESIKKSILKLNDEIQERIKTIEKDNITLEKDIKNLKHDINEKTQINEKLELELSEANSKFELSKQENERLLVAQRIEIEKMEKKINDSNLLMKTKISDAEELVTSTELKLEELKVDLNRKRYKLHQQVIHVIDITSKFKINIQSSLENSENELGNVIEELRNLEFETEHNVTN
T3 sequence (P33895 whole entry, chain 2 of 4): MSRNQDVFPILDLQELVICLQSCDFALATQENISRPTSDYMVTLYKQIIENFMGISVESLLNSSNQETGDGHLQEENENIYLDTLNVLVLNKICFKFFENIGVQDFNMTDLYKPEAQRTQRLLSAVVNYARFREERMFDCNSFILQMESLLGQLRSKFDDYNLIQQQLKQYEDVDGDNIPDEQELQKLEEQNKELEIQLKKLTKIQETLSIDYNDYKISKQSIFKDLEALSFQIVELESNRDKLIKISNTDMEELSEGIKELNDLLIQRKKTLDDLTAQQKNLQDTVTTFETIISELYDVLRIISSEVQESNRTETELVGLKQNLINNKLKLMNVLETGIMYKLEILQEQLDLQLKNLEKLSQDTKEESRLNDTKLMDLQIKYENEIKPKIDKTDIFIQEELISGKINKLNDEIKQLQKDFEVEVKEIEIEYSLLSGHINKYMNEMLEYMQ
T3 sequence (Q04477 whole entry, chain 3 of 4): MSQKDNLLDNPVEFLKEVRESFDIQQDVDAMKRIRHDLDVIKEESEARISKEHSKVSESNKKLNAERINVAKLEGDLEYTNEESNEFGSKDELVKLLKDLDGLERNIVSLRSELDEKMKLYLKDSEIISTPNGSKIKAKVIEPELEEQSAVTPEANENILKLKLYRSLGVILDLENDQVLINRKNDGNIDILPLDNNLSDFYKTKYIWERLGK
T3 sequence (P40014 whole entry, chain 4 of 4): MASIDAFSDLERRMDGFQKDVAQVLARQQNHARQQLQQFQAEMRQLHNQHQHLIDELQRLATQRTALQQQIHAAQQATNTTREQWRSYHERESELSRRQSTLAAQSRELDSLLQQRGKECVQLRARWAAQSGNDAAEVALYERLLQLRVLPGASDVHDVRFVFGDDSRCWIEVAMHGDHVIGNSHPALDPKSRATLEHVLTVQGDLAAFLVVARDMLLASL
The assay is described as follows: SEC; 4 μM Mis12c^Mtw1c (wild type or mutant) mixed with 4 μM Ndc80c in KMN buffer, 30 min on ice; Superose 6 3.2/300; fractions on SDS-PAGE. The settings on record: both partners purified.

Data on eleven molecules can be found in PMC13065467, “Assembly and phosphoregulatory mechanisms of the budding yeast outer kinetochore KMN complex” (The Journal of Cell Biology, 2026).

The term Kd denotes a measure of binding affinity in units of concentration.

Ends that are not written are not given here.

T2 sequence (P53148 445-917, chain 1 of 2): as the sequence (P53148 445-917, stated change not applied, one chain of several, further chain) above
T2 sequence (Q04431 whole entry, chain 2 of 2, the tested form may be a part): as the sequence (Q04431 whole entry, stated change not applied, one chain of several, further chain, the tested form may be a part) above

Take “CENP-U^Ame1_1–33 peptide (residues 1–33 of CENP-U^Ame1) D25A; V27A; I28A; F29A; T31A”: the other: N (ITC stoichiometry) in assay [1] was found to be 1.34.

In the case of “K. lactis CENP-U^Ame1_1-25: residues 1–25 of K. lactis CENP-U^Ame1, reported by Dimitrova et al., 2016 (MDALKQRHLKLLYRQRGSASRTIDY; UniProt Q6CUE5 1-25, looked up, fragment)”, the Kd in assay [2] is 1.48 µM. Besides, the “binding (fluorescence polarization)” value in assay [3] is recorded as “did not interact”.

As to “Ac-PHYIQRTRERKKEIGSQRGRRLEMLASGSAW-NH2 [Dsn1^228-254,S240E,S250E]”, the “decrease of affinity versus wild-type peptide” value in assay [4] (ratio of ITC KD values, S240E,S250E peptide versus wild-type Dsn1^228–254) was “fivefold”. In addition, the Kd in assay [4] (read-out: KD (ITC) of phosphomimetic Dsn1 peptide, ITC, 25°C, 25 mM HEPES pH 7.5, 100 mM NaCl, 1 mM TCEP, syringe 0.35 mM, cell 0.025 mM, average from two experiments (technical repeats)) was found to be 6 µM.

With “CENP-C^Mif2_1-41: CENP-C^Mif2 peptide (residues 1-41) reported by Dimitrova et al., 2016 (MDYMKLGLKSRKTGIDVKQDIPKDEYSMENIDDFFKDDETS; UniProt P35201 1-41, looked up, fragment)”, in assay [2], the dissociation constant (Kd) is 1.75 µM. Moreover, the “binding (fluorescence polarization)” value in assay [3] is on record as “no binding”.

B1: CENP-U^Ame1_1–33 peptide (residues 1–33 of CENP-U^Ame1) (peptide)
peptide: MDRDTKLAFRLRGSHSRRTDDIDDDVIVFKTPNW-NH2
notes: CENP-U^Ame1, S. cerevisiae, residues 1-33; added C-terminal tryptophan after residue 33 (so in the source); source: synthetic peptide (Alta BioScience)
On to B1, for which binding in assay [5] was put at a Kd of 0.24 µM.

B2: Isolated Mis12c^Mtw1c, full-length and wild-type proteins (Dsn1, Nsl1, Mis12^Mtw1, Nnf1) (complex, S. cerevisiae)
chain 1: MSLEPTQTVSGTPPMLHQRTHKQVYPLRMETIPILESDSKATLQSNEPTQKDEEETEYFENKQSVSNLSPDLKFKRHKNKHIQGFPTLGERLDNLQDIKKAKRVENFNSSAPIADDNHSGDATANATANATANATANVNASAMPAPYMPYYYYYHPMNAPTPAMIPYPGSPMHSIMPNSSLQPFYSQPTAAGGPDMTTPQNISSSQQLLPAPQLFPYGSFHQQQLQQPHYIQRTRERKKSIGSQRGRRLSMLASQANGGSTIISPHKDIPEEDFYTVVGNASFGKNLQIRQLFNWCLMRSLHKLELKAKNQEEEGELEHLTKKSKLESTKAETDYVDPKRLAMVIIKEFVDDLKKDHIAIDWEDEEKYEDEDEEKILDNTENYDDTELRQLFQENDDDDDDDDEVDYSEIQRSRRKFSERRKALPKEPKKLLPNSKNVENTKNLSILTSKVNAIKNEVKEWAVTLDTSRPDLEWQELTSFSSQPLEPLSDTEEPDLAIADVETKLETKVDELRYQSHILNSHSLALNEITNSKVNKLNIETMRKISSETDDDHSQVINPQQLLKGLSLSFSKKLDL
chain 2: MSQGQSKKLDVTVEQLRSIYHQFHDILEEKTDLHLPKKEYDDDAVRREVQIQLQEFLLSAMTMASKSLEVVNADTVGKTVKQLIMESQEKYMEPFDLDLNEQVRKMYQEWEDETVKVAQLRQTGPAKINEVYNNSKDEYLAQLDGRIGVLQARMMQQQSADHDDSTDDADDHINWEHIKQDYVASLNELYQTQQDLPKVRYNVEKVKRLMDFLEED
chain 3: MSAPTMRSTSILTEHLGYPPISLVDDIINAVNEIMYKCTAAMEKYLLSKSKIGEEDYGEEIKSGVAKLESLLENSVDKNFDKLELYVLRNVLRIPEEYLDANVFRLENQKDLVIVDENELKKSEEKLREKVNDVELAFKKNEMLLKRVTKVKRLLFTIRGFKQKLNELLKCKDDVQLQKILESLKPIDDTMTLLTDSLRKLYVDSESTSSTEEVEALLQRLKTNGKQNNKDFRTRYIDIRTNNVLRKLGLLGDKEDEKQSAKPDARTQAGDIVSIDIEEPQLDLLDDVL
chain 4: MVNSHGIRYIRLKQVFNRALDQSISKLQSWDKVSSCFPQYVNSKQGAINVANCQRQLTEFWTELCQREFKEIMEERNVEQKLNELDELILEAKERYTDRDQDEVNKGPAIDELSSKELVECHLYSQRMHAIHEIDERLAKVNEMNDQLAQELKDLETQVEVEKNEIGKMYDEYLGSHTDQPANVLLVQSLNDMVLELKENY
notes: Dsn1, S. cerevisiae S288c; Nsl1, S. cerevisiae S288c; Mis12^Mtw1, S. cerevisiae S288c; Nnf1, S. cerevisiae S288c; source: High-5 insect cells (two baculoviruses), purified (Strep-Tactin, SEC); copies: + + +
For B2, in assay [6], the binding result is “binds”.

B3: Mis12c^Mtw1c_Mis12ΔC-Nnf1ΔC (isolated Mis12c^Mtw1c with Mis12^Mtw1 residues 272–289 and Nnf1 residues 180–201 deleted) (complex, S. cerevisiae)
chain 1: B2 chain 1
chain 2: B2 chain 2
chain 3: MSAPTMRSTSILTEHLGYPPISLVDDIINAVNEIMYKCTAAMEKYLLSKSKIGEEDYGEEIKSGVAKLESLLENSVDKNFDKLELYVLRNVLRIPEEYLDANVFRLENQKDLVIVDENELKKSEEKLREKVNDVELAFKKNEMLLKRVTKVKRLLFTIRGFKQKLNELLKCKDDVQLQKILESLKPIDDTMTLLTDSLRKLYVDSESTSSTEEVEALLQRLKTNGKQNNKDFRTRYIDIRTNNVLRKLGLLGDKEDEKQSAKPDARTQAGD
chain 4: MVNSHGIRYIRLKQVFNRALDQSISKLQSWDKVSSCFPQYVNSKQGAINVANCQRQLTEFWTELCQREFKEIMEERNVEQKLNELDELILEAKERYTDRDQDEVNKGPAIDELSSKELVECHLYSQRMHAIHEIDERLAKVNEMNDQLAQELKDLETQVEVEKNEIGKMYDEYLGSHTD
notes: Dsn1, S. cerevisiae S288c; Nsl1, S. cerevisiae S288c; Nnf1^Δ180-C: Nnf1, S. cerevisiae S288c, residues 180-201 deleted; source: High-5 insect cells (two baculoviruses), purified (Strep-Tactin, SEC); copies: + + +
Turning to B3, the binding result in assay [6] is listed as “binds”.

B4: Mis12c^Mtw1c_Mis12ΔC (isolated Mis12c^Mtw1c with Mis12^Mtw1 residues 272–289 deleted) (complex, S. cerevisiae)
chain 1: B2 chain 1
chain 2: B2 chain 2
chain 3: B3 chain 3
chain 4: B2 chain 4
notes: Dsn1, S. cerevisiae S288c; Nsl1, S. cerevisiae S288c; Nnf1, S. cerevisiae S288c; also called Mis12^Mtw1_Δ272-C; source: High-5 insect cells (two baculoviruses), purified (Strep-Tactin, SEC); copies: + + +
For the molecule B4, the binding result in assay [6] is “binds”.

B5: Mis12c^Mtw1c_Nnf1ΔC (isolated Mis12c^Mtw1c with Nnf1 residues 180–201 deleted) (complex, S. cerevisiae)
chain 1: B2 chain 1
chain 2: B2 chain 2
chain 3: B2 chain 3
chain 4: B3 chain 4
notes: Dsn1, S. cerevisiae S288c; Nsl1, S. cerevisiae S288c; Mis12^Mtw1, S. cerevisiae S288c; Nnf1^Δ180-C: Nnf1, S. cerevisiae S288c, residues 180-201 deleted; also called Nnf1^Δ180-C; source: High-5 insect cells (two baculoviruses), purified (Strep-Tactin, SEC); copies: + + +
On to B5, for which the binding result in assay [6] is “binds”.

B6: CENP-C^Mif2_1–38 peptide (N-terminal 38 residues of CENP-C^Mif2) (peptide)
peptide: MDYMKLGLKSRKTGIDVKQDIPKDEYSMENIDDFFKDD-NH2
notes: CENP-C^Mif2, S. cerevisiae, residues 1-38; source: synthetic peptide (Alta BioScience)
As to B6, binding in assay [5] was characterised by a dissociation constant (Kd) of 0.98 µM.

B7: CENP-U^Ame1_1-33-Mut peptide (CENP-U^Ame1_1-33 with Ala substitutions) (peptide)
peptide: MDRDTKLAFRLRGSHSRRTDDIDDAAAVAKAPNW-NH2
notes: CENP-U^Ame1, S. cerevisiae, residues 1-33 with five Ala substitutions; added C-terminal tryptophan after residue 33 (so in the source); also called CENP-U^Ame1_1-33 mutant; source: synthetic peptide (Alta BioScience)
As for B7, binding in assay [5] was put at a Kd of 1.31 µM.
